US20160289298A1 (ACCELERON PHARMA, published 2016)
Changes are numbered by the printed parent chain.

T1: activin A (UniProt P08476 311-426)
T1 sequence (looked up): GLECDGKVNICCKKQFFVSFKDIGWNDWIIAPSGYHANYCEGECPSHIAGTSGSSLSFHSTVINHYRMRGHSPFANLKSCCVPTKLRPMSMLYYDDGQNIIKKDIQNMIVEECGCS

T2: GDF8 (UniProt O14793 267-375)
T2 construct: also called myostatin
T2 sequence (looked up): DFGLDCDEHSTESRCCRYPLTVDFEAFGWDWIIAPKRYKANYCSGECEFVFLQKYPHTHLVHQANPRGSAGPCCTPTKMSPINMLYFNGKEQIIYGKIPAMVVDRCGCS

T3: BMP4 (UniProt P12644 293-408)
T3 sequence (looked up): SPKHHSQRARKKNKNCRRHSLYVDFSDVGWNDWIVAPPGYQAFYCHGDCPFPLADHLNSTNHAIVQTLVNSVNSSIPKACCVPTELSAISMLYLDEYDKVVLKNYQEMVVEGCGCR

T4: BMP5 (UniProt P22003 317-454, limits assumed)
T4 sequence (looked up): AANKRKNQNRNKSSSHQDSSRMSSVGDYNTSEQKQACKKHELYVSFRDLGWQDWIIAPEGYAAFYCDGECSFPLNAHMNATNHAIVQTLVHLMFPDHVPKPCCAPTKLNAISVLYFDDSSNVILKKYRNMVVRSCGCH

T5: BMP6 (UniProt P22004 382-513, limits assumed)
T5 sequence (looked up): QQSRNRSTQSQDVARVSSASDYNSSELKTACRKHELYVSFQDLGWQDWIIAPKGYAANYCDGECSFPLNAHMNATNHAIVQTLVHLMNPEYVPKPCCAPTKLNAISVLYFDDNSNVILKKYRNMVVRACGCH

T6: BMP7 (UniProt P18075 293-431)
T6 construct: also called OP-1
T6 sequence (looked up): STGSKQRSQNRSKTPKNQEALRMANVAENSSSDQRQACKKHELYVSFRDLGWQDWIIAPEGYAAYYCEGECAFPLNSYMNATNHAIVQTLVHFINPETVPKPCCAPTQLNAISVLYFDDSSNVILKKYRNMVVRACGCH

T7: BMP15 (UniProt O95972 268-392)
T7 construct: also called GDF9b
T7 sequence (looked up): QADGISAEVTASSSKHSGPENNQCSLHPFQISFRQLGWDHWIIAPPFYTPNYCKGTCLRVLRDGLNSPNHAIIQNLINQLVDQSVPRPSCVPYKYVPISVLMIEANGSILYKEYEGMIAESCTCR

B1: BMP10 (ligand, UniProt O95393 317-424, looked up)
chain: NAKGNYCKRTPLYIDFKEIGWDSWIIAPPGYEAYECRGVCNYPLAEHLTPTKHAIIQALVHLKNSQKASKACCVPTKLEPISILYLDKGVVTYKFKYEGMAVSECGCR
B2: GDF6 (ligand, UniProt Q6KF10 336-455, looked up)
chain: TAFASRHGKRHGKKSRLRCSKKPLHVNFKELGWDDWIIAPLEYEAYHCEGVCDFPLRSHLEPTNHAIIQTLMNSMDPGSTPPSCCVPTKLTPISILYIDAGNNVVYKQYEDMVVESCGCR
notes: also called BMP13
B3: BMP2 (ligand, UniProt P12643 283-396, looked up)
chain: QAKHKQRKRLKSSCKRHPLYVDFSDVGWNDWIVAPPGYHAFYCHGECPFPLADHLNSTNHAIVQTLVNSVNSKIPKACCVPTELSAISMLYLDENEKVVLKNYQDMVVEGCGCR
B4: activin B (ligand, UniProt P09529 293-407, looked up)
chain: GLECDGRTNLCCRQQFFIDFRLIGWNDWIIAPTGYYGNYCEGSCPAYLAGVPGSASSFHTAVVNQYRMRGLNPGTVNSCCIPTKLSTMSMLYFDDEYNIVKRDVPNMIVEECGCA
B5: single-arm ActRIIB-Fc:Fc heterodimeric protein complex (Fc fusion)
chain 1: GRGEAETRECIYYNANWELERTNQSGLERCEGEQDKRLHCYASWRNSSGTIELVKKGCWLDDFNCYDRQECVATEENPQVYFCCCEGNFCNERFTHLPEAGGPEVTYEPPPTAPTGGGTHTCPPCPAPELLGGPSVFLFPPKPKDTLMISRTPEVTCVVVDVSHEDPEVKFNWYVDGVEVHNAKTKPREEQYNSTYRVVSVLTVLHQDWLNGKEYKCKVSNKALPAPIEKTISKAKGQPREPQVYTLPPSRKEMTKNQVSLTCLVKGFYPSDIAVEWESNGQPENNYKTTPPVLKSDGSFFLYSKLTVDKSRWQQGNVFSCSVMHEALHNHYTQKSLSLSPGK
chain 2: SNTKVDKRVTGGGTHTCPPCPAPELLGGPSVFLFPPKPKDTLMISRTPEVTCVVVDVSHEDPEVKFNWYVDGVEVHNAKTKPREEQYNSTYRVVSVLTVLHQDWLNGKEYKCKVSNKALPAPIEKTISKAKGQPREPQVYTLPPSREEMTKNQVSLTCLVKGFYPSDIAVEWESNGQPENNYDTTPPVLDSDGSFFLYSDLTVDKSRWQQGNVFSCSVMHEALHNHYTQKSLSLSPGK
notes: C-terminal lysine optionally removed; also called single-arm ActRIIB-Fc heterodimeric complex
B6: single-arm ALK3-Fc:Fc heterodimeric protein complex (Fc fusion)
chain 1: GAQNLDSMLHGTGMKSDSDQKKSENGVTLAPEDTLPFLKCYCSGHCPDDAINNTCITNGHCFAIIEEDDQGETTLASGCMKYEGSDFQCKDSPKAQLRRTIECCRTNLCNQYLQPTLPPVVIGPFFDGSIRTGGGTHTCPPCPAPELLGGPSVFLFPPKPKDTLMISRTPEVTCVVVDVSHEDPEVKFNWYVDGVEVHNAKTKPREEQYNSTYRVVSVLTVLHQDWLNGKEYKCKVSNKALPAPIEKTISKAKGQPREPQVYTLPPSREEMTKNQVSLTCLVKGFYPSDIAVEWESNGQPENNYDTTPPVLDSDGSFFLYSDLTVDKSRWQQGNVFSCSVMHEALHNHYTQKSLSLSPG
chain 2: B5 chain 2 with E147K, D183K, D190K, D200K
notes: also called single-arm ALK3-Fc heterodimer
B7: ALK3-Fc homodimeric complex (Fc fusion, UniProt P36894 24-152, looked up)
chain: QNLDSMLHGTGMKSDSDQKKSENGVTLAPEDTLPFLKCYCSGHCPDDAINNTCITNGHCFAIIEEDDQGETTLASGCMKYEGSDFQCKDSPKAQLRRTIECCRTNLCNQYLQPTLPPVVIGPFFDGSIR
notes: also called homodimeric ALK3-Fc; not shown: linker and Fc portion of the homodimer
B8: BMP9 (ligand, UniProt Q9UK05 320-429, looked up)
chain: SAGAGSHCQKTSLRVNFEDIGWDSWIIAPKEYEAYECKGGCFFPLADDVTPTKHAIVQTLVHLKFPTKVGKACCVPTKLSPISVLYKDDMGVPTLKYHYEGMSVAECGCR
notes: also called GDF2
B9: BMPRII-Fc homodimeric complex (Fc fusion, UniProt Q13873 27-150, looked up)
chain: SQNQERLCAFKDPYQQDLGIGESRISHENGTILCSKGSTCYGLWEKSKGDINLVKQGCWSHIGDPQECHYEECVVTTTPPSIQNGTYRFCCCSTDLCNVNFTENFPPPDTTPLSPPHSFNRDET
notes: also called homodimeric BMPRII-Fc; not shown: linker and Fc portion of the homodimer
B10: GDF11 (ligand, UniProt O95390 299-407, looked up)
chain: NLGLDCDEHSSESRCCRYPLTVDFEAFGWDWIIAPKRYKANYCSGQCEYMFMQKYPHTHLVQQANPRGSAGPCCTPTKMSPINMLYFNDKQQIIYGKIPGMVVDRCGCS
notes: also called BMP11

Legend:
[1] = biological target: B7; assay: SPR (Biacore), receptor-Fc captured by anti-Fc antibody, ligand injected
[2] = biological target: T8, ActRIIA-Fc homodimeric complex (UniProt P27037 21-135); assay: as above
T8 construct: also called homodimeric ActRIIA-Fc; not shown: linker and Fc portion of the homodimer

[3] = biological target: B9; assay: as above
Procedure: (§1) Ligands were injected and allowed to flow over the captured receptor protein.

activin A = biological target: T1, activin A; assay: SPR (Biacore), legend of FIG. 6
Procedure: as §1

activin B = biological target: B4; assay: SPR (Biacore), legend of FIG. 6
Procedure: as §1

GDF8 = biological target: T2, GDF8; assay: SPR (Biacore), legend of FIG. 6
Procedure: as §1

GDF11 = biological target: B10; assay: SPR (Biacore), legend of FIG. 6
Procedure: as §1

BMP2 = biological target: B3; assay: SPR (Biacore), receptor-Fc captured by anti-Fc antibody, ligand injected
BMP4 = biological target: T3, BMP4; assay: as above
BMP5 = biological target: T4, BMP5; assay: as above
BMP6 = biological target: T5, BMP6; assay: as above
Procedure: as §1

BMP7 = biological target: T6, BMP7; assay: as above
Procedure: as §1

BMP15 = biological target: T7, BMP15; assay: as above
Procedure: as §1

T8 sequence (P27037 21-135, one chain of several): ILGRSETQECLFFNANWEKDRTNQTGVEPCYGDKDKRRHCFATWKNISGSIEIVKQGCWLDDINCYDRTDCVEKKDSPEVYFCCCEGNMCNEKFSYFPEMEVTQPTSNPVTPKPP

Binder: B1
binding result [1]: no binding
binding result [2]: binds
Kd [3]: 0.098 nM
koff [3]: 0.0025 s⁻¹
kon [3]: 2.6e+07 M⁻¹ s⁻¹

Binder: B2
Kd [3]: > 88 nM

Binder: B3
Kd [3]: > 2000 nM

Binder: B4
Kd [3]: 3.8 nM
koff [3]: 0.075 s⁻¹
kon [3]: 2e+07 M⁻¹ s⁻¹

Binder: B5
binding result (activin A): binds
binding result (activin B): binds
binding result (GDF8): binds
binding result (GDF11): binds

Binder: B6
binding result (BMP2): binds
binding result (BMP4): binds
binding result (BMP5): binds

Binder: B7
binding result (BMP5): binds

Binder: B8
Kd [3]: 2.1 nM
koff [3]: 0.026 s⁻¹
kon [3]: 1.2e+07 M⁻¹ s⁻¹

Binder: B9
Kd (BMP6): > 8.9 nM
Kd (BMP7): > 38 nM
Kd (BMP15): 0.28 nM
koff (BMP15): 0.0028 s⁻¹
kon (BMP15): 9.9e+06 M⁻¹ s⁻¹

Binder: B10
binding result [1]: no binding
binding result [2]: binds
